This note sets out measurements from patent publication US20160067305A1 (UNIVERSITY OF HONG KONG, published 2016).

The target of the test is T1, FLAG-tagged SIRT1 (ectopically expressed in HEK293 cells) (UniProt Q96EB6 1-747, limits assumed).
T1 construct: Immunoprecipitated from lysate of transfected HEK293 cells; also called FLAG-SIRT1; not shown: FLAG tag
T1 sequence (looked up): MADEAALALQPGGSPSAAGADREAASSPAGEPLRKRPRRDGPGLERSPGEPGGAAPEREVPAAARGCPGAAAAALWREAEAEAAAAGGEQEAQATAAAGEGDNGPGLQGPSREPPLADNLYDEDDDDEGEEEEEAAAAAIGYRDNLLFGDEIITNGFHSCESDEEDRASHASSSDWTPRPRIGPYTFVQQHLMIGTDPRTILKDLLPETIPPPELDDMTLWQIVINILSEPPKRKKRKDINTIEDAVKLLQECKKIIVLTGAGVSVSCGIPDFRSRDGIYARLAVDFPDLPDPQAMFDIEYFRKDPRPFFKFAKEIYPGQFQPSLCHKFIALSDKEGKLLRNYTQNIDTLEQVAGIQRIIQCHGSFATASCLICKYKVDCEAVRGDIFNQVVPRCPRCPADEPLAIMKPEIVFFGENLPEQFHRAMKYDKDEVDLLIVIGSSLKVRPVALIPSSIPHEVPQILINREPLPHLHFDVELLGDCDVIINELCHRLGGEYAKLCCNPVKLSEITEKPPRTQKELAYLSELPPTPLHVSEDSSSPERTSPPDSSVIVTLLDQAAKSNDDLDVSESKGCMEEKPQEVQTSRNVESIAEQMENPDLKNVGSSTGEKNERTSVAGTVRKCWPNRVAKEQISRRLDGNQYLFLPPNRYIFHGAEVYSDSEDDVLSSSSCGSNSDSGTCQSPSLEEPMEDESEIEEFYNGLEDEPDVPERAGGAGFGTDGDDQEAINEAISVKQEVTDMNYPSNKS
Description: co-immunoprecipitation in transfected HEK293 cells, Western blot (FIG. 1F). An excerpt:
This was further confirmed by co-immunoprecipitation in HEK293 cells expressing FLAG-SIRT1 together with either lamin A or lamin C.
(In western blotting, separated proteins are transferred to a membrane and probed.)

B1: lamin C (ectopically expressed in HEK293 cells) (other, UniProt P02545-2 1-572, looked up)
chain: METPSQRRATRSGAQASSTPLSPTRITRLQEKEDLQELNDRLAVYIDRVRSLETENAGLRLRITESEEVVSREVSGIKAAYEAELGDARKTLDSVAKERARLQLELSKVREEFKELKARNTKKEGDLIAAQARLKDLEALLNSKEAALSTALSEKRTLEGELHDLRGQVAKLEAALGEAKKQLQDEMLRRVDAENRLQTMKEELDFQKNIYSEELRETKRRHETRLVEIDNGKQREFESRLADALQELRAQHEDQVEQYKKELEKTYSAKLDNARQSAERNSNLVGAAHEELQQSRIRIDSLSAQLSQLQKQLAAKEAKLRDLEDSLARERDTSRRLLAEKEREMAEMRARMQQQLDEYQELLDIKLALDMEIHAYRKLLEGEEERLRLSPSPTSQRSRGRASSHSSQTQGGGSVTKKRKLESTESRSSFSQHARTSGRVAVEEVDEEGKFVRLRNKSNEDQSMGNWQIKRQNGDDPLLTYRFPPKFTLKAGQVVTIWAAGAGATHSPPTDLVWKAQNTWGCGNSLRTALINSTGEEVAMRKLVRSVTVVEDDEDEDGDDLLHHHHVSGSRR
Consider B1, for which the binding result is on record as “no binding”.
